Source: patent US20240327495A1 (OXFORD UNIVERSITY INNOVATION, published 2024)

Biological target: C. difficile toxin B glucosyltransferase domain (GTD, residues 2-543) (Clostridium difficile, UniProt P18177 2-543)
Sequence (P18177 2-543 limits assumed): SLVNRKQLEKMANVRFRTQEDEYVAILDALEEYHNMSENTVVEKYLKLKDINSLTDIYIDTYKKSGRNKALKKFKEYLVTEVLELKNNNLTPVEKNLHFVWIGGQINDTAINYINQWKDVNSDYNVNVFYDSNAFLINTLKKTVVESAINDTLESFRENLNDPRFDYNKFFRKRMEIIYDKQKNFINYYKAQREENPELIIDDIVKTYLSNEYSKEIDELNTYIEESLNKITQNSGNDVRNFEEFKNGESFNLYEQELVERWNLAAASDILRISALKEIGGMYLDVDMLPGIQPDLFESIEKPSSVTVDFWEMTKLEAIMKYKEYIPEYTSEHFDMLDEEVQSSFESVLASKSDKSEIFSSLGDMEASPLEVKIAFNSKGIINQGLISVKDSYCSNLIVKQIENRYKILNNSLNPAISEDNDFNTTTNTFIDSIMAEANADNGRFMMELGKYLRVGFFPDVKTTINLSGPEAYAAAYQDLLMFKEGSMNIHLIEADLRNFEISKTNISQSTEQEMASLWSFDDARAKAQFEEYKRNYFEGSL

B1: GT01 R63A (designed binder, not shown: small tags and cut ends)
chain: DFVLDNEGNPLENGGTYYILSDYGRQLFGGIRAAPTGNERCPLTVVQSLFRNHRDKGIGTIISSPYAIRFIAEGHPLSLKFDSFAVIMLCVGIPTEWSVVEDLPEGPAVKIGENKDAMDGWFRLERVSDDEFNNYKLVFCPQQAEDDKCGDIGISIDHDDGTRRLVVSKNKPLVVQFQKLDKESL
With B1 as the binder, how does the “EC50 (read off the curve)” value read?
Its value is roughly 7 nM.
